Results as given in PMC6611726 (Nature, 2019).

Assays:
[1] = target: DDB1 (UV-DDB subunit);DDB2 (UV-DDB subunit) (human;human) (UniProt Q16531+Q92466); assay: fluorescence polarisation; conditions: N at position 8 = THF abasic site
[2] = target: DDB1 (human wild-type DDB1) (human, UniProt Q16531 1-1140); assay: cryo-EM structure
Sequence of DDB1 (human wild-type DDB1) (Q16531 whole entry): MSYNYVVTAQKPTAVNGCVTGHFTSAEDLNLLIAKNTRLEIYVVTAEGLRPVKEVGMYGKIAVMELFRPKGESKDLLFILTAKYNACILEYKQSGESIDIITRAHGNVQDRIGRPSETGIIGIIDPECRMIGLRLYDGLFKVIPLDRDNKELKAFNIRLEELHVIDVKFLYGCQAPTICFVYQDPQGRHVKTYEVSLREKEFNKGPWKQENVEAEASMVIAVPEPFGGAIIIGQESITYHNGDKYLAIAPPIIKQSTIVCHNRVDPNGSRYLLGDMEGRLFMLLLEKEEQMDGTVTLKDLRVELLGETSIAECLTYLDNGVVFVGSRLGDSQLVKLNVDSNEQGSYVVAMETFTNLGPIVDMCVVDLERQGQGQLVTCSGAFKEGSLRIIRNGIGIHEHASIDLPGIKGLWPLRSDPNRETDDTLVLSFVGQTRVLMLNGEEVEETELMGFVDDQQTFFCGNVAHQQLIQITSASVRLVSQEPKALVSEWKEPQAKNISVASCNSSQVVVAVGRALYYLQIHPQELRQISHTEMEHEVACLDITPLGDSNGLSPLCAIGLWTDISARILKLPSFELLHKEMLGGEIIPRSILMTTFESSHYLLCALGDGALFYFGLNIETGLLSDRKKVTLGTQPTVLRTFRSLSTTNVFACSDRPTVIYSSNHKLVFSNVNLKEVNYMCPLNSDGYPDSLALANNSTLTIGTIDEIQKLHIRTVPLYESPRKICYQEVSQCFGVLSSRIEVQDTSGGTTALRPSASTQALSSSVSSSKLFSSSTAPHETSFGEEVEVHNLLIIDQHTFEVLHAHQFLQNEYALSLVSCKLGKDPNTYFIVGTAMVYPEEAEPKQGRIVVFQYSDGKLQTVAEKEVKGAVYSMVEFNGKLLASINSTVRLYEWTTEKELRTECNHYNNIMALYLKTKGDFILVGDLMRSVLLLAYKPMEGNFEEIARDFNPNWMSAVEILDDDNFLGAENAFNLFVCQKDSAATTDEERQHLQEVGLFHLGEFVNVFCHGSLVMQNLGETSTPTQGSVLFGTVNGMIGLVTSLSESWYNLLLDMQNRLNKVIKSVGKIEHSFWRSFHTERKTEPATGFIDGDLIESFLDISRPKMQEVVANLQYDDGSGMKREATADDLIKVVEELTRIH

Sequence of DDB1 (UV-DDB subunit);DDB2 (UV-DDB subunit) (human;human) (Q16531 whole entry, chain 1 of 2, one chain of several): as the sequence (Q16531 whole entry) above

AATGAATNAAGCAGG / CCTGCTTTATTCATT [Cy5-15-bp-DNA-THF]
Kd [1]: 150 pM

B1: DDB2 (human wild-type DDB2) (natural protein)
chain: MAPKKRPETQKTSEIVLRPRNKRSRSPLELEPEAKKLCAKGSGPSRRCDSDCLWVGLAGPQILPPCRSIVRTLHQHKLGRASWPSVQQGLQQSFLHTLDSYRILQKAAPFDRRATSLAWHPTHPSTVAVGSKGGDIMLWNFGIKDKPTFIKGIGAGGSITGLKFNPLNTNQFYASSMEGTTRLQDFKGNILRVFASSDTINIWFCSLDVSASSRMVVTGDNVGNVILLNMDGKELWNLRMHKKKVTHVALNPCCDWFLATASVDQTVKIWDLRQVRGKASFLYSLPHRHPVNAACFSPDGARLLTTDQKSEIRVYSASQWDCPLGLIPHPHRHFQHLTPIKAAWHPRYNLIVVGRYPDPNFKSCTPYELRTIDVFDGNSGKMMCQLYDPESSGISSLNEFNPMGDTLASAMGYHILIWSQEEARTRK
binding result [2]: binds
